Source: US20040086503A1 (Amgen, published 2004)

Columns and labels:
[1] = target: COS7 IGF-IR (old world monkey (COS7 cells)); assay: cell-based or functional assay
[2] = target: Rhesus IGF-IR (rhesus, UniProt I2CWY3 31-736; I2CWY3 741-1367); assay: cell-based or functional assay
[3] = target: T1, human IGF-IR on cells (human, UniProt P08069 31-1367); assay: cell-based or functional assay
[4] = target: T2, canine IGF-IR (canine, UniProt A0A8I3MER7 10-1344); assay: immunoprecipitation and Western blot on cells
T2 construct: whole, on cells
Method: (§1) The samples prepared as described above were then analyzed by Western blot. We loaded 12 μl of each sample per lane on 4-10% gradient Novex™ gels run with 1× MES buffer (Novex™). Gels were run at 150V for 1 hour or at 200V for approximately 30 minutes. We then transferred the gel to a membrane in Novex™ transfer buffer with 10% methanol either overnight at 100 mA or for 1-1.5 hours at 250 mA. We then allowed the membrane to dry completely and blocked at room temperature with TBS (Tris-buffered saline pH 8.0) containing Superblock (Pierce Chemical Co.). We added the IGF-IR blotting antibody SC713 (Santa Cruz) to detect immunoprecipitated IGF-IR.

[5] = target: guinea pig IGF-IR (guinea pig, UniProt H0V5D0 31-736; H0V5D0 741-1367); assay: immunoprecipitation and Western blot on cells
Method: as §1

[6] = target: T3, rabbit IGF-IR (rabbit, UniProt G1TLR2 31-1366); assay: immunoprecipitation and Western blot on cells
T3 construct: whole, on cells
Method: as §1

[7] = target: T1, human IGF-IR on cells; assay: inhibition of [125I]-IGF-I binding to IGF-IR-transfected NIH-3T3 cells
Method: We plated IGF-IR-transfected NIH-3T3 cells (5×10⁴/ml) in 100 μl of DMEM high glucose media supplemented with L-glutamine (0.29 mg/ml), 10% heat-inactivated FBS, and 500 μg/ml each of geneticin, penicillin and streptomycin in 96-well U-bottom plates. We then incubated the plates at 37° C., 5% CO₂ overnight to allow cells to attach. We then decanted the media from the plates and replaced it with 100 μl fresh media per well. For testing, we diluted antibodies in assay media (DMEM high glucose media supplemented with L-glutamine, 10% heat-inactivated FBS, 200 μg/ml BSA and 500 μg/ml each of geneticin, penicillin and streptomycin) to the desired final concentration and added 50 μl per well. All samples were performed in triplicate. We then incubated the plates at 37° C. for ten minutes. […] We incubated the plates for 10 minutes at 37° C., decanted the media by blotting gently onto paper towels and washed twice with assay media. We then lysed the cells by adding 50 μl 0.1 N NaOH, 0.1% SDS and shaking the plates for five minutes at room temperature. We then transferred the samples to a scintillation plate, added 150 μl OptiPhase Supermix and read the signal on a Wallac Micro-Beta counter.

[8] = target: T4, cynomologous IGF-IR (cynomologous); assay: flow cytometry, biotinylated antibody on cynomologous cells, streptavidin-RPE
T4 construct: whole, on cells; also called IGF-IR of cynomologous cells
Method: We performed FACS analysis to determine the affinity of the antibodies of the invention for IGF-IR from other animals, particularly the old world monkeys described above. We incubated aliquots of human and monkey cells (5×10⁵) for 1 hour on ice with increasing concentrations of biotinylated anti-IGF-IR antibodies of the invention or with a biotinylated anti-keyhole limpet hemocyanin (KLH) antibody (Abgenix) as a negative control. We then incubated the samples for 30 minutes on ice with steptavidin-conjugated RPE (phycoerythrin). We measured binding by flow cytometry and analyzed the histograms of fluorescence intensity (Fl2-H) versus cell number (Counts) using CellQuest software. We calculated binding (Kd) for each antibody from graphs of mean fluorescence intensity versus antibody concentration. In most experiments, we measured binding in cultured human MCF-7 cells and either rhesus or cynomologous tissue culture cells. We controlled for depletion of the antibody by measuring binding over a range of cell concentrations.

T2 sequence (A0A8I3MER7 entry or part of it): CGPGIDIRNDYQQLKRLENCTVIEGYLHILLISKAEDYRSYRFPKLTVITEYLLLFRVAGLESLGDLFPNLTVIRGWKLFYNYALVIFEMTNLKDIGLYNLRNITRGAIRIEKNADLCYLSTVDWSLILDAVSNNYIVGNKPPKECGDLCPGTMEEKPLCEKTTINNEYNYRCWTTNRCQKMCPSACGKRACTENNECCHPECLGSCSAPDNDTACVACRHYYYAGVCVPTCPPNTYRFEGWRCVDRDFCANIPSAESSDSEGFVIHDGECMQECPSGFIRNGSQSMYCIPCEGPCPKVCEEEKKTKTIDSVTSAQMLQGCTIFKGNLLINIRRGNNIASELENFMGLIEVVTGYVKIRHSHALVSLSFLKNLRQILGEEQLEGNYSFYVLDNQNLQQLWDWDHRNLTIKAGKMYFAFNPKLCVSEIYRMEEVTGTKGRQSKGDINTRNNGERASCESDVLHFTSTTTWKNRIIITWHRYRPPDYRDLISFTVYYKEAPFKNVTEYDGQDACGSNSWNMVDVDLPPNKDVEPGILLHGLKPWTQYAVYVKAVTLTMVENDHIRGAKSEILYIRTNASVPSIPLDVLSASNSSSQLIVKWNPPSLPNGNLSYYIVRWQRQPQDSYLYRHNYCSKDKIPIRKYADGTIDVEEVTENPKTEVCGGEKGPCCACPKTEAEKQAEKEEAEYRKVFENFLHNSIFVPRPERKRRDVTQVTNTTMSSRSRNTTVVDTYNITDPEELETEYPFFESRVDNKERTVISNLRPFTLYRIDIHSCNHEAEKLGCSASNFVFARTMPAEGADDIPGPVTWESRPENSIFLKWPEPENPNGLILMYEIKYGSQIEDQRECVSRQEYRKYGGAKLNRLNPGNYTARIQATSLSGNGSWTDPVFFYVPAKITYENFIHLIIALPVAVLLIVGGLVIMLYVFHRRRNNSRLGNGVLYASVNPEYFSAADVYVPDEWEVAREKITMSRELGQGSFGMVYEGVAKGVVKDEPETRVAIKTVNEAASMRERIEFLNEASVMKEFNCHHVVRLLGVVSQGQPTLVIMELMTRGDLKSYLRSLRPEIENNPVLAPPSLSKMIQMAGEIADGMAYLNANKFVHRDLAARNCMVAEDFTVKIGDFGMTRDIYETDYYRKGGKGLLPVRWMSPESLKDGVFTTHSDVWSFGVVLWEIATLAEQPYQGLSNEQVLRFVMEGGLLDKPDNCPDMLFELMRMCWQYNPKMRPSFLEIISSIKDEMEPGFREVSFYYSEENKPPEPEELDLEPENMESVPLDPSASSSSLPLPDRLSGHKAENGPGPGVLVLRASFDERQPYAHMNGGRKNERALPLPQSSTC
guinea pig IGF-IR, sequence (alpha, as listed by the source limits assumed, chain 1 of 2): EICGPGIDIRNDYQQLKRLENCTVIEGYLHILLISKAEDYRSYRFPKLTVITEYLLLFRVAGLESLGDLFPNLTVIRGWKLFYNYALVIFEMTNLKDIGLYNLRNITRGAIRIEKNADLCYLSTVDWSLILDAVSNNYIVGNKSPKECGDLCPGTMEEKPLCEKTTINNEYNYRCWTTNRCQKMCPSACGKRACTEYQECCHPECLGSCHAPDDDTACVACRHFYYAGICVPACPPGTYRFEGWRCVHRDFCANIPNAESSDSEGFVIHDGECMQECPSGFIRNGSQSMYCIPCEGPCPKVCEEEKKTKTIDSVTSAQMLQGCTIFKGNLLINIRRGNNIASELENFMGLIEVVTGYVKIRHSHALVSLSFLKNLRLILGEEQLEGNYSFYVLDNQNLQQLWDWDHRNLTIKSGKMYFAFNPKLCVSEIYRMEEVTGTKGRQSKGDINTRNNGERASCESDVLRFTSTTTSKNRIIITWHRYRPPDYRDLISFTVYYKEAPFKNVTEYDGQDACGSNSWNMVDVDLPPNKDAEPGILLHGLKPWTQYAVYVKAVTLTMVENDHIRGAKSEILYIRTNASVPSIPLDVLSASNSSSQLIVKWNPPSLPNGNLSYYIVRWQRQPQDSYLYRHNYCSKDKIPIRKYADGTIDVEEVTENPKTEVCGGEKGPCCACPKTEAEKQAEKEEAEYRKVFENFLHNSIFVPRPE
guinea pig IGF-IR, sequence (beta, as listed by the source limits assumed, chain 2 of 2): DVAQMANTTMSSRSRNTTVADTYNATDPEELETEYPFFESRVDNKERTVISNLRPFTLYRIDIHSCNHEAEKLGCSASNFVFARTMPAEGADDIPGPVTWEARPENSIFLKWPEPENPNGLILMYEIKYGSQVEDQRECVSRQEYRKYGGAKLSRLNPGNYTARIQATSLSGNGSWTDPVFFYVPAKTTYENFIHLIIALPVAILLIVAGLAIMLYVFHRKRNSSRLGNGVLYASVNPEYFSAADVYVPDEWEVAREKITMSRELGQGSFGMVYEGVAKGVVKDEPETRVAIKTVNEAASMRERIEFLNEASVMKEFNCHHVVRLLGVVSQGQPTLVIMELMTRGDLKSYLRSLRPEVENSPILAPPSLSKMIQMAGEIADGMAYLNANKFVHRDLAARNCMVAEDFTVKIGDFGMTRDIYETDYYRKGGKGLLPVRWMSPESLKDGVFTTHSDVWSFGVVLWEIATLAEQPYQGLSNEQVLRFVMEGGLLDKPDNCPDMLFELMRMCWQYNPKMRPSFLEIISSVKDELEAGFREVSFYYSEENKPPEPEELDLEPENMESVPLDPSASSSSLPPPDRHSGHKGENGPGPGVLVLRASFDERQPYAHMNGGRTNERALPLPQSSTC
Rhesus IGF-IR, sequence (alpha, as listed by the source limits assumed, chain 1 of 2): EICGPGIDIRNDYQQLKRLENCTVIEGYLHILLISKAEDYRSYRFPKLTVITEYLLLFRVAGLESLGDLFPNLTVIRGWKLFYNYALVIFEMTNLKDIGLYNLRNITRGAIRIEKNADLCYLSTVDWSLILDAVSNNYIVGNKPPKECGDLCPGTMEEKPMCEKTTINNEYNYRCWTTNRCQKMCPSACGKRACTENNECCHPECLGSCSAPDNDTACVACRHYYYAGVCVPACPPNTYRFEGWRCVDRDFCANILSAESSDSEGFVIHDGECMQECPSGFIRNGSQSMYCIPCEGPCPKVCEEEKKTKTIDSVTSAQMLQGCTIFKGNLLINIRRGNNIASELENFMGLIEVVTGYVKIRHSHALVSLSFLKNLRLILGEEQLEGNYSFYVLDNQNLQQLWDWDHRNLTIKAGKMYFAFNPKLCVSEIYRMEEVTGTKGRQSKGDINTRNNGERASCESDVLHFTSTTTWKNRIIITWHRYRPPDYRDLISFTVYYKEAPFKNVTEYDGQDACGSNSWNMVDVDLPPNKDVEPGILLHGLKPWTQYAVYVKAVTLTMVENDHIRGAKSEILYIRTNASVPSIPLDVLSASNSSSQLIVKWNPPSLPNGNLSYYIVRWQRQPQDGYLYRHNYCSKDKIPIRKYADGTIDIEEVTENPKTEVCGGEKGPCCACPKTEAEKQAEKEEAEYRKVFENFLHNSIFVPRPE
Rhesus IGF-IR, sequence (beta, as listed by the source limits assumed, chain 2 of 2): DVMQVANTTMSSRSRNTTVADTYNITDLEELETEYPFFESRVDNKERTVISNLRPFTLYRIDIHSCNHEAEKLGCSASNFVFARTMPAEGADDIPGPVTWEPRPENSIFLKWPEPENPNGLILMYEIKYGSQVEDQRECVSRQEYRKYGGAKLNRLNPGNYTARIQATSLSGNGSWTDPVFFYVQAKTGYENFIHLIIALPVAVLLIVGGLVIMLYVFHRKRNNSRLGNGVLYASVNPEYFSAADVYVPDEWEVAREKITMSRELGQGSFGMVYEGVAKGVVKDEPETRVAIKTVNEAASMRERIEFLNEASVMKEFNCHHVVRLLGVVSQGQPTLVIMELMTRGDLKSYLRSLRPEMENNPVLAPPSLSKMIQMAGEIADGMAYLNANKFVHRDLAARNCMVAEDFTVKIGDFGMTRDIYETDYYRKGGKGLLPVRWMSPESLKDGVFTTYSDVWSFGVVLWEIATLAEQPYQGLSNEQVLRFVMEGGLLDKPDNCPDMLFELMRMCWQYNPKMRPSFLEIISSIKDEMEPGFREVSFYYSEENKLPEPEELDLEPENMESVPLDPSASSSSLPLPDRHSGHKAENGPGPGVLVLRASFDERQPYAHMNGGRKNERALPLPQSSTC

B1: anti-IGF-IR antibody 2.13.2 (antibody, V domains shown)
VH: EVQLLESGGGLVQPGGSLRLSCTASGFTFSSYAMNWVRQAPGKGLEWVSAISGSGGTTFYADSVKGRFTISRDNSRTTLYLQMNSLRAEDTAVYYCAKDLGWSDSYYYYYGMDVWGQGTTVTVSS
VL: DIQMTQFPSSLSASVGDRVTITCRASQGIRNDLGWYQQKPGKAPKRLIYAASRLHRGVPSRFSGSGSGTEFTLTISSLQPEDFATYYCLQHNSYPCSFGQGTKLEIKR
notes: Fully human IgG2 kappa from a XenoMouse hybridoma; Biotinylated in the FACS assay
Question: For B1, which “IC50 of inhibition of IGF-I-induced phosphorylation of IGF-IR (immunoprecipitation, Western blot with HRP-PY54)” value [1] is on record?
Answer: 0.02 µg/mL

Question: And the “IC50 of inhibition of IGF-I-induced phosphorylation of IGF-IR (immunoprecipitation, Western blot with HRP-PY54)” value [2]?
Answer: 0.005 µg/mL

Question: What about the “IC50 of inhibition of IGF-I-induced tyrosine phosphorylation of IGF-IR (ELISA, IGF-IR-transfected NIH-3T3 cells)” value [3] of the same binder?
Answer: 0.0812 µg/mL

Question: Does B1 bind [4]?
Answer: no binding (tested: 1 µg/ml)

Question: Does B1 bind [5]?
Answer: no binding (tested: 1 µg/ml)

Question: Does B1 bind [6]?
Answer: no binding (tested: 1 µg/ml)

Question: What about the IC50 [7] of the same binder?
Answer: 0.18 µg/mL

Question: And the Kd [8]?
Answer: 0.1 µg/mL

B2: anti-IGF-IR antibody 4.9.2 (antibody, human IgG2, V domains shown)
VH: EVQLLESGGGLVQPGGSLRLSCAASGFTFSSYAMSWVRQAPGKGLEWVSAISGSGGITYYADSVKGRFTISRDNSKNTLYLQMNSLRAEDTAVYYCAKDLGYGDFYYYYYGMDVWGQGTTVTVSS
VL: DIQMTQSPSSLSASVGDRVTITCRASQGIRSDLGWFQQKPGKAPKRLIYAASKLHRGVPSRFSGSGSGTEFTLTISRLQPEDFATYYCLQHNSYPLTFGGGTKVEIK
notes: Human IgG2 kappa; Biotinylated in the FACS assay
Question: For B2, which “IC50 of inhibition of IGF-I-induced phosphorylation of IGF-IR (immunoprecipitation, Western blot with HRP-PY54)” value [1] is on record?
Answer: 0.02 µg/mL

Question: And the “IC50 of inhibition of IGF-I-induced phosphorylation of IGF-IR (immunoprecipitation, Western blot with HRP-PY54)” value [2]?
Answer: 0.005 µg/mL

Question: What about the “IC50 of inhibition of IGF-I-induced tyrosine phosphorylation of IGF-IR (ELISA, IGF-IR-transfected NIH-3T3 cells)” value [3] of the same binder?
Answer: 0.0324 µg/mL

Question: Does B2 bind [4]?
Answer: no binding (tested: 1 µg/ml)

Question: Does B2 bind [5]?
Answer: no binding (tested: 1 µg/ml)

Question: Does B2 bind [6]?
Answer: no binding (tested: 1 µg/ml)

Question: What about the IC50 [7] of the same binder?
Answer: 0.1 µg/mL

Question: And the Kd [8]?
Answer: 0.1 µg/mL

B3: anti-IGF-IR antibody 2.12.1 (antibody, V domains shown)
VH: QAQLVESGGGLVKPGGSLRLSCAASGFTFSDYYMSWIRQAPGKGLEWVSYISSSGSTRDYADSVKGRFTISRDNAKNSLYLQMNSLRAEDTAVYYCVRDGVETTFYYYYYGMDVWGQGTTVTVSS
VL: DIQMTQSPSSLSASVGDRVTFTCRASQDIRRDLGWYQQKPGKAPKRLIYAASRLQSGVPSRFSGSGSGTEFTLTISSLQPEDFATYYCLQHNNYPRTFGQGTEVEIIR
notes: as for B1
Question: B3 was tested. Which “IC50 of inhibition of IGF-I-induced tyrosine phosphorylation of IGF-IR (ELISA, IGF-IR-transfected NIH-3T3 cells)” value [3] did it give?
Answer: 0.172 µg/mL

Question: Does B3 bind [4]?
Answer: no binding (tested: 1 µg/ml)

Question: Does B3 bind [5]?
Answer: no binding (tested: 1 µg/ml)

Question: Does B3 bind [6]?
Answer: no binding (tested: 1 µg/ml)

Question: And the IC50 [7]?
Answer: 0.45 µg/mL

B4: anti-IGF-IR antibody 2.14.3 (antibody, human IgG2, V domains shown)
VH: GPGLVKPSETLSLTCTVSGGSISNYYWSWIRQPAGKGLEWIGRIYTSGSPNYNPSLKSRVTMSVDTSKNQFSLKLNSVTAADTAVYYCAVTIFGVVIIFDYWGQGTLVTVSS
VL: SSLSASVGDRVTFTCRASQDIRRDLGWYQQKPGKAPKRLIYAASRLQSGVPSRFSGSGSGTEFTLTISSLQPEDFATYYCLQHNNYPRTFGQGTEVEIIR
Question: With B4 as the binder, how does the “IC50 of inhibition of IGF-I-induced tyrosine phosphorylation of IGF-IR (ELISA, IGF-IR-transfected NIH-3T3 cells)” value [3] read?
Answer: 0.325 µg/mL
